Results: paper PMC4434323

Experiments:
[1] = molecular target: T1, dmd-6 (F13G11.1) (Caenorhabditis elegans) (UniProt O62159)
T1 sequence: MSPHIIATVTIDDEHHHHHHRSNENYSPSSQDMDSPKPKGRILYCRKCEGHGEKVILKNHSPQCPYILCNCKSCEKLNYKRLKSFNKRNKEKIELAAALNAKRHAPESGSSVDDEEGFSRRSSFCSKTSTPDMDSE

[2] = molecular target: T2, mab-23 (C32C4.5) (Caenorhabditis elegans) (UniProt G5ECK3)
T2 sequence: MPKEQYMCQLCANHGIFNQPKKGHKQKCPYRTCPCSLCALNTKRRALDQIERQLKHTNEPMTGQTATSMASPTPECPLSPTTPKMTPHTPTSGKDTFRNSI

[3] = molecular target: T3, Y61A9LA.9 (Y61A9LA.9) (Caenorhabditis elegans) (UniProt Q9N312)
T3 sequence: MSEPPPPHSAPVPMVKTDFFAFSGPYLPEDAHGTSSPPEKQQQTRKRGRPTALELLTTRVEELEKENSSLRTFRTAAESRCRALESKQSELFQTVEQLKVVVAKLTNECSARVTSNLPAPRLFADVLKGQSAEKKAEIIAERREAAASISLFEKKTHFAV

[4] = tested on: scrt-1 (C55C2.1) (Caenorhabditis elegans)
scrt-1 (C55C2.1) (Caenorhabditis elegans), sequence (chain, as listed by the source): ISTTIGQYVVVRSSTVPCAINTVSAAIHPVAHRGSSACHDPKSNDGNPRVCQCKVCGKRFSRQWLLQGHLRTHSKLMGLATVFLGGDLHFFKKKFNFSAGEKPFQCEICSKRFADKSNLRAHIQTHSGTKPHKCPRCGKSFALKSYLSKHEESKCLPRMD

[5] = molecular target: egl-13 (T22B7.1) (Caenorhabditis elegans) (UniProt Q23045)
egl-13 (T22B7.1) (Caenorhabditis elegans), sequence (Q23045 279-447): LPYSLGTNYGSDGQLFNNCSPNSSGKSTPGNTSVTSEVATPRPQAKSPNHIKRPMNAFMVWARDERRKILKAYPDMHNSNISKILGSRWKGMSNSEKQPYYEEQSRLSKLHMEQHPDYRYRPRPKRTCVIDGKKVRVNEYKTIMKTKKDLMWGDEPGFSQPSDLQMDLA

[6] = molecular target: T4, K02D7.2 (K02D7.2) (Caenorhabditis elegans) (UniProt O45103)
T4 sequence: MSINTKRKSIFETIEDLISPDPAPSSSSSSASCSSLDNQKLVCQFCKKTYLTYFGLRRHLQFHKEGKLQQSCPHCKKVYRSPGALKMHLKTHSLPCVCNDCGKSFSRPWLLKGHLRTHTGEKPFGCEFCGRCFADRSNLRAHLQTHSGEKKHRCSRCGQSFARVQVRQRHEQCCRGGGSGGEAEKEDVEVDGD

[7] = molecular target: T5, tbx-33 (Y66A7A.8) (Caenorhabditis elegans) (UniProt O45291)
T5 sequence: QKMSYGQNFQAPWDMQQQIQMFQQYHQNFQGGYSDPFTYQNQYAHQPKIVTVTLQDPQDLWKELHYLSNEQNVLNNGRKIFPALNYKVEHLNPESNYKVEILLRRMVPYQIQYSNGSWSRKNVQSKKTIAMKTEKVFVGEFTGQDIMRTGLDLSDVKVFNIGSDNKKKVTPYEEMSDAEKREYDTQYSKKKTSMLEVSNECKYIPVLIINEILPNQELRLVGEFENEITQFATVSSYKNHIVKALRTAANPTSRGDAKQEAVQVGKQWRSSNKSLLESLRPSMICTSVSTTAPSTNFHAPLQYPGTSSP

[8] = molecular target: T6, F55C5.11 (F55C5.11) (Caenorhabditis elegans) (UniProt Q1ZXU0)
T6 sequence: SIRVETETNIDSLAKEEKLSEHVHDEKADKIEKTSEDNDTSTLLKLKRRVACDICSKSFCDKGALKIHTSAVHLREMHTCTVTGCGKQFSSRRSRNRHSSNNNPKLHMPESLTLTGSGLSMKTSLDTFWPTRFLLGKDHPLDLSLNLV

AAAAATTT (double strand) [8-mer AAAAATTT]
binding signal (PBM E-score (-0.5 to 0.5)) [1]: 0.481
binding signal (PBM E-score (-0.5 to 0.5)) [2]: 0.478

AAAATATT (double strand) [8-mer AAAATATT]
binding signal (PBM E-score (-0.5 to 0.5)) [3]: 0.451
binding signal (PBM E-score (-0.5 to 0.5)) [1]: 0.485
binding signal (PBM E-score (-0.5 to 0.5)) [2]: 0.469

AAAATTTC (double strand) [8-mer AAAATTTC]
binding signal (PBM E-score (-0.5 to 0.5)) [2]: 0.47

AAAATTTT (double strand) [8-mer AAAATTTT]
binding signal (PBM E-score (-0.5 to 0.5)) [1]: 0.481
binding signal (PBM E-score (-0.5 to 0.5)) [2]: 0.469

AAACCACT (double strand) [8-mer AAACCACT]
binding signal (PBM E-score (-0.5 to 0.5)) [4]: 0.453

AAATATTA (double strand) [8-mer AAATATTA]
binding signal (PBM E-score (-0.5 to 0.5)) [3]: 0.456
binding signal (PBM E-score (-0.5 to 0.5)) [1]: 0.481
binding signal (PBM E-score (-0.5 to 0.5)) [2]: 0.459

AAATTATT (double strand) [8-mer AAATTATT]
binding signal (PBM E-score (-0.5 to 0.5)) [2]: 0.454

AACCACCT (double strand) [8-mer AACCACCT]
binding signal (PBM E-score (-0.5 to 0.5)) [4]: 0.464

AACCACTA (double strand) [8-mer AACCACTA]
binding signal (PBM E-score (-0.5 to 0.5)) [4]: 0.46

AACCACTG (double strand) [8-mer AACCACTG]
binding signal (PBM E-score (-0.5 to 0.5)) [4]: 0.475

AACCACTT (double strand) [8-mer AACCACTT]
binding signal (PBM E-score (-0.5 to 0.5)) [4]: 0.476

AATTTTTA (double strand) [8-mer AATTTTTA]
binding signal (PBM E-score (-0.5 to 0.5)) [2]: 0.453

ACAACAAT (double strand) [8-mer ACAACAAT]
binding signal (PBM E-score (-0.5 to 0.5)) [5]: 0.455

ACAACCAC (double strand) [8-mer ACAACCAC]
binding signal (PBM E-score (-0.5 to 0.5)) [4]: 0.472

ACACCTGT (double strand) [8-mer ACACCTGT]
binding signal (PBM E-score (-0.5 to 0.5)) [6]: 0.468

ACAGGTGC (double strand) [8-mer ACAGGTGC]
binding signal (PBM E-score (-0.5 to 0.5)) [6]: 0.477

ACAGGTGG (double strand) [8-mer ACAGGTGG]
binding signal (PBM E-score (-0.5 to 0.5)) [6]: 0.467

AGAACAAT (double strand) [8-mer AGAACAAT]
binding signal (PBM E-score (-0.5 to 0.5)) [5]: 0.469

AGCAGGTG (double strand) [8-mer AGCAGGTG]
binding signal (PBM E-score (-0.5 to 0.5)) [6]: 0.457

AGTGGTTG (double strand) [8-mer AGTGGTTG]
binding signal (PBM E-score (-0.5 to 0.5)) [4]: 0.492

ATAACAAT (double strand) [8-mer ATAACAAT]
binding signal (PBM E-score (-0.5 to 0.5)) [5]: 0.471

ATCACCAC (double strand) [8-mer ATCACCAC]
binding signal (PBM E-score (-0.5 to 0.5)) [7]: 0.459

ATCGCCAC (double strand) [8-mer ATCGCCAC]
binding signal (PBM E-score (-0.5 to 0.5)) [7]: 0.49

ATCGCCAG (double strand) [8-mer ATCGCCAG]
binding signal (PBM E-score (-0.5 to 0.5)) [7]: 0.473

ATCGTCAC (double strand) [8-mer ATCGTCAC]
binding signal (PBM E-score (-0.5 to 0.5)) [7]: 0.487

ATCTCCAC (double strand) [8-mer ATCTCCAC]
binding signal (PBM E-score (-0.5 to 0.5)) [7]: 0.485

ATCTCCAG (double strand) [8-mer ATCTCCAG]
binding signal (PBM E-score (-0.5 to 0.5)) [7]: 0.474

ATCTTCAC (double strand) [8-mer ATCTTCAC]
binding signal (PBM E-score (-0.5 to 0.5)) [7]: 0.488

ATTGTCAC (double strand) [8-mer ATTGTCAC]
binding signal (PBM E-score (-0.5 to 0.5)) [8]: 0.486
binding signal (PBM E-score (-0.5 to 0.5)) [7]: 0.47

CAACCACC (double strand) [8-mer CAACCACC]
binding signal (PBM E-score (-0.5 to 0.5)) [4]: 0.483

CACCTGTA (double strand) [8-mer CACCTGTA]
binding signal (PBM E-score (-0.5 to 0.5)) [6]: 0.457

CACCTGTC (double strand) [8-mer CACCTGTC]
binding signal (PBM E-score (-0.5 to 0.5)) [6]: 0.456

GAACAATA (double strand) [8-mer GAACAATA]
binding signal (PBM E-score (-0.5 to 0.5)) [5]: 0.478

TAACAATA (double strand) [8-mer TAACAATA]
binding signal (PBM E-score (-0.5 to 0.5)) [5]: 0.464
